Measurements reported in publication PMC4491694, “New Variants of Tomato Thymidine Kinase 1 Selected for Increased Sensitivity of E. coli KY895 towards Azidothymidine” (Cancers, 2015).
Where a chain is given by its changes, count along the chain named. Names and notes keep the numbering of the source.

Legend:
ToTK1ΔC25 [1] = target: T1, ToTK1ΔC25 (Solanum lycopersicum, UniProt Q71F77); test: nucleoside kinase assay, 3H-labelled nucleoside substrate; format: biochemical; settings: read-out: IC50 dTTP (μM) / dThd
T1 construct: last 25 C-terminal residues of the 234-residue protein deleted (residues 210-234, borders derived); GST fusion from pGEX-2T, thrombin-cleaved, recombinant
T1 sequence (Q71F77 1-209): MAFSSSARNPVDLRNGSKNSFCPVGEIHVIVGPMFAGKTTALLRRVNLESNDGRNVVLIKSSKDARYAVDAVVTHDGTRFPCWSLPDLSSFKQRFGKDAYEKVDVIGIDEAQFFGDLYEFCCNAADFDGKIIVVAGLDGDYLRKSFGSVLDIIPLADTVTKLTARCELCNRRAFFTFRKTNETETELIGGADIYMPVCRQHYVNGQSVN
From the text: nucleoside kinase assay, 3H-labelled nucleoside substrate on ToTK1ΔC25

ToTK1 [2] = target: T2, ToTK1 (Solanum lycopersicum, UniProt Q71F77); test: as above; format: biochemical; settings: read-out: IC50 dTTP (μM) / dThd
T2 construct: full length, 234 residues; GST fusion from pGEX-2T, thrombin-cleaved, recombinant
T2 sequence (Q71F77 1-234): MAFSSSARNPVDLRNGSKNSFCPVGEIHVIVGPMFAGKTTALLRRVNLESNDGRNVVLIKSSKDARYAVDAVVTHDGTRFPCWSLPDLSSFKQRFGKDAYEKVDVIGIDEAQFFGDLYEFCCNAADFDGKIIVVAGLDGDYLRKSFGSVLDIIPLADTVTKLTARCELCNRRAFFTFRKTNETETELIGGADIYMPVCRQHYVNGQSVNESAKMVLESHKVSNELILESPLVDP
From the text: (§1) nucleoside kinase assay, 3H-labelled nucleoside substrate on ToTK1

ToTK1 [3] = target: T3, ToTK1 (Solanum lycopersicum, UniProt Q71F77, N123S/T78A); test: as above; format: biochemical; settings: read-out: IC50 dTTP (μM) / dThd
T3 construct: full length, 234 residues; GST fusion from pGEX-2T, thrombin-cleaved, recombinant
T3 sequence (Q71F77 1-234 T78A/N123S): T2 sequence (Q71F77 1-234) with T78A, N123S
From the text: as §1

ToTK1 [4] = target: T3, ToTK1; test: nucleoside kinase assay, 3H-labelled nucleoside substrate; Ki equals IC50; format: biochemical; settings: read-out: dThd
From the text: nucleoside kinase assay, 3H-labelled nucleoside substrate; Ki equals IC50 on ToTK1

ToTK1ΔC25 [5] = target: T1, ToTK1ΔC25; test: nucleoside kinase assay, 3H-labelled nucleoside, Michaelis-Menten fit; format: biochemical; settings: labelled compound (3H)
From the text: (§2) nucleoside kinase assay, 3H-labelled nucleoside, Michaelis-Menten fit on ToTK1ΔC25

ToTK1 [6] = target: T4, ToTK1 (Solanum lycopersicum, UniProt Q71F77, T78A/N123S); test: as above; format: biochemical; settings: labelled compound (3H)
T4 construct: full length, 234 residues; GST fusion from pGEX-2T, thrombin-cleaved, recombinant
T4 sequence (Q71F77 1-234 T78A/N123S): T2 sequence (Q71F77 1-234) with T78A, N123S
From the text: (§3) nucleoside kinase assay, 3H-labelled nucleoside, Michaelis-Menten fit on ToTK1

ToTK1 [7] = target: T2, ToTK1; test: as above; format: biochemical; settings: labelled compound (3H)
From the text: as §3

[8] = substrate: O=c1ccn([C@H]2C[C@H](O)[C@@H](CO)O2)c(=O)[nH]1; test: as above; format: biochemical, Solanum lycopersicum; settings: labelled compound (3H)
From the text: as §2

[9] = substrate: O=c1ccn([C@H]2C[C@H](O)[C@@H](CO)O2)c(=O)[nH]1; test: as above; format: biochemical, Solanum lycopersicum; settings: labelled compound (3H); remark: listed apart in the source
From the text: as §3

[10] = substrate: Cc1cn([C@H]2C[C@H](O)[C@@H](CO)O2)c(=O)[nH]c1=O; test: as above; format: biochemical, Solanum lycopersicum; settings: labelled compound (3H)
From the text: as §3

Q: Which results are given for Cc1cn([C@H]2C[C@H](O)[C@@H](COP(=O)(O)OP(=O)(O)OP(=O)(O)O)O2)c(=O)[nH]c1=O [dTTP]?
A: IC50 (ToTK1ΔC25 [1]): 65.2 ± 6 µM; IC50 (ToTK1 [2]): 49.1 ± 1.7 µM; IC50 (ToTK1 [3]): 55.6 ± 5.2 µM; Ki (ToTK1 [4]): 55.6 µM

Q: Which Km (ToTK1ΔC25 [5]) does the source give for Cc1cn([C@H]2C[C@H](N=[N+]=[N-])[C@@H](CO)O2)c(=O)[nH]c1=O [AZT, 3-azido-2,3-dideoxythymidine] here?
A: 2 ± 0.06 µM

Q: And the Km (ToTK1 [6])?
A: 1.1 ± 0.1 µM

Q: And the Km (ToTK1 [7])?
A: 1.2 ± 0.04 µM

B1: ToTK1ΔC25 (Solanum lycopersicum) (protein)
chain: T1 sequence (Q71F77 1-209)
notes: last 25 C-terminal residues of the 234-residue protein deleted (residues 210-234, borders derived); GST fusion from pGEX-2T, thrombin-cleaved, recombinant
Q: What does the source list for B1?
A: Km [8]: 27 ± 3.3 µM; Vmax [8]: 4 µmol/min/mg; kcat [8]: 1.54 s⁻¹; kcat/Km [8]: 57000 M⁻¹ s⁻¹

B2: ToTK1 (Solanum lycopersicum; N123S/T78A) (protein)
chain: T2 sequence (Q71F77 1-234) with T78A, N123S
notes: full length, 234 residues; GST fusion from pGEX-2T, thrombin-cleaved, recombinant
Q: With B2 as the molecule, how does the Km [9] read?
A: 15 ± 3.3 µM

Q: What about the Vmax [9] of the same molecule?
A: 1.9 µmol/min/mg

Q: What about the kcat [9] of the same molecule?
A: 0.82 s⁻¹

Q: And the kcat/Km [9]?
A: 54700 M⁻¹ s⁻¹

Q: What about the Km [10] of the same molecule?
A: 1.3 ± 0.36 µM

Q: And the Vmax [10]?
A: 1.6 µmol/min/mg

Q: What about the kcat [10] of the same molecule?
A: 0.69 s⁻¹

Q: What about the kcat/Km [10] of the same molecule?
A: 531000 M⁻¹ s⁻¹

B3: ToTK1 (Solanum lycopersicum) (protein)
chain: T2 sequence (Q71F77 1-234)
notes: as for B2
Q: What does the source list for B3?
A: Km [9]: 17 ± 0.5 µM; Vmax [9]: 3.4 µmol/min/mg; kcat [9]: 1.47 s⁻¹; kcat/Km [9]: 86500 M⁻¹ s⁻¹
